Test results: PMC2096194 (Nature structural & molecular biology, 2007)

T1: Full-length human RAD51 (human, UniProt Q06609 1-339)
T1 sequence: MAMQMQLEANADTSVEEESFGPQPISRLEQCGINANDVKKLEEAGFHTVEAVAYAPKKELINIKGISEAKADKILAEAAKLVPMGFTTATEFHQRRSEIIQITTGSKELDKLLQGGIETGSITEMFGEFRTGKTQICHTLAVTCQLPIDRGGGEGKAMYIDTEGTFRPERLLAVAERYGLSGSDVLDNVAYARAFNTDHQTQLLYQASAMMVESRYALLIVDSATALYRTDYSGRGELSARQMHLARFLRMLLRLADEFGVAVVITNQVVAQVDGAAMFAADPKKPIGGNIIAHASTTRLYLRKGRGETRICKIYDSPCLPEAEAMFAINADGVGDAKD

B1: Lys80 RAD51 (residues 80-339) (domain or fragment)
chain: KLVPMGFTTATEFHQRRSEIIQITTGSKELDKLLQGGIETGSITEMFGEFRTGKTQICHTLAVTCQLPIDRGGGEGKAMYIDTEGTFRPERLLAVAERYGLSGSDVLDNVAYARAFNTDHQTQLLYQASAMMVESRYALLIVDSATALYRTDYSGRGELSARQMHLARFLRMLLRLADEFGVAVVITNQVVAQVDGAAMFAADPKKPIGGNIIAHASTTRLYLRKGRGETRICKIYDSPCLPEAEAMFAINADGVGDAKD

Columns and labels:
[1] = biological target: the molecule itself; assay: SEC
[2] = biological target: T1, Full-length human RAD51; assay: cross-linking
[3] = biological target: B1; assay: pull-down

binding result [2] | binding result [3] | Binder | binding result [1]
– | – | B1 | binds
binds | binds | EKIKEPTLLGFHTASGKKVKIAKESLDKVKNLFDE (biotin on the N-terminus) [BRC4 peptide (human BRCA2 residues 1,514-1,548), biotinylated] | –
